The results in this text go back to the supplement of paper PMC5998384.

Data set [1] deals with HeLa Kyoto. Briefly: solubility in G1/S (NP-40 vs SDS abundance) (log2 ratio); higher = more soluble. To be noted: cell cycle stage: G1/S.
For data set [2], the system named is HeLa Kyoto. Briefly: melting temperature (median over replicates), in situ; higher = more thermally stable.
Data set [3] concerns HeLa Kyoto. Briefly: solubility change mitosis vs G1/S (difference of NP-40 vs SDS log2 ratios) (log2 ratio difference); higher = more soluble in mitosis.
Data set [4] relates to HeLa Kyoto. Briefly: thermal stability score vs G1/S (z-score of summed log2 fold changes over temperatures); higher = more thermally stable than in G1/S.
[5] abbreviates: cell cycle stage: early G1 (4.5 h after nocodazole release).
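Wherever melting temperature (median over replicates), in situ is given: HeLa Kyoto cells synchronized by double thymidine or nocodazole block, proteins quantified by TMT10plex mass spectrometry, three independent biological replicates.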
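Wherever solubility change mitosis vs G1/S (difference of NP-40 vs SDS log2 ratios) is given: synchronized HeLa Kyoto cells (double thymidine block for G1/S, nocodazole release for mitosis), protein amounts in NP-40 versus SDS lysates quantified by mass spectrometry, three biological replicates.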
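Wherever solubility in G1/S (NP-40 vs SDS abundance) is given: HeLa Kyoto cells arrested at G1/S by double thymidine block, proteins quantified by TMT10plex mass spectrometry in mild NP-40 versus SDS extracts, three biological replicates.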
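Wherever thermal stability score vs G1/S (z-score of summed log2 fold changes over temperatures) is given: synchronized HeLa Kyoto cells, proteins quantified by TMT10plex mass spectrometry, three biological replicates, mitosis taken 0.5 h after nocodazole release, G1/S directly after double thymidine block.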

Regarding “MPGFLVRILPLLLVLLLLGPTRGLRNATQRMFEIDYSRDSFLKDGQPFRYISGSIHYSRVPRFYWKDRLLKMKMAGLNAIQTYVPWNFHEPWPGQYQFSEDHDVEYFLRLAHELGLLVILRPGPYICAEWEMGGLPAWLLEKESILLRSSDPDYLAAVDKWLGVLLPKMKPLLYQNGGPVITVQVENEYGSYFACDFDYLRFLQKRFRHHLGDDVVLFTTDGAHKTFLKCGALQGLYTTVDFGTGSNITDAFLSQRKCEPKGPLINSEFYTGWLDHWGQPHSTIKTEAVASSLYDILARGASVNLYMFIGGTNFAYWNGANSPYAAQPTSYDYDAPLSEAGDLTEKYFALRNIIQKFEKVPEGPIPPSTPKFAYGKVTLEKLKTVGAALDILCPSGPIKSLYPLTFIQVKQHYGFVLYRTTLPQDCSNPAPLSSPLNGVHDRAYVAVDGIPQGVLERNNVITLNITGKAGATLDLLVENMGRVNYGAYINDFKGLVSNLTLSSNILTDWTIFPLDTEDAVRSHLGGWGHRDSGHHDEAWAHNSSNYTLPAFYMGNFSIPSGIPDLPQDTFIQFPGWTKGQVWINGFNLGRYWPARGPQLTLFVPQHILMTSAPNTITVLELEWAPCSSDDPELCAVTFVDRPVIGSSVTYDHPSKPVEKRLMPPPPQKNKDSWLDHV [GLB1]”, the “solubility in G1/S (log2)” value in data set [1] was 0.0247. Also, the results for the melting temperature in data set [2] (cell cycle stage: G1/S) and in data set [2] (cell cycle stage: mitosis) were 55.6 °C and 57.6 °C, respectively. Also, in data set [3], the “solubility change mitosis (log2)” value is -0.293. Besides, the thermal stability score in data set [4] (setting [5]) turned out to be 0.0217; in data set [4] (cell cycle stage: mitosis), 0.602.

On to “MPGKLLWGDIMELEAPLEESESQKKERQKSDRRKSRHHYDSDEKSETRENGVTDDLDAPKAKKSKMKEKLNGDTEEGFNRLSDEFSKSHKSRRKDLPNGDIDEYEKKSKRVSSLDTSTHKSSDNKLEETLTREQKEGAFSNFPISEETIKLLKGRGVTYLFPIQVKTFGPVYEGKDLIAQARTGTGKTFSFAIPLIERLQRNQETIKKSRSPKVLVLAPTRELANQVAKDFKDITRKLSVACFYGGTSYQSQINHIRNGIDILVGTPGRIKDHLQSGRLDLSKLRHVVLDEVDQMLDLGFAEQVEDIIHESYKTDSEDNPQTLLFSATCPQWVYKVAKKYMKSRYEQVDLVGKMTQKAATTVEHLAIQCHWSQRPAVIGDVLQVYSGSEGRAIIFCETKKNVTEMAMNPHIKQNAQCLHGDIAQSQREITLKGFREGSFKVLVATNVAARGLDIPEVDLVIQSSPPQDVESYIHRSGRTGRAGRTGICICFYQPRERGQLRYVEQKAGITFKRVGVPSTMDLVKSKSMDAIRSLASVSYAAVDFFRPSAQRLIEEKGAVDALAAALAHISGASSFEPRSLITSDKGFVTMTLESLEEIQDVSCAWKELNRKLSSNAVSQITRMCLLKGNMGVCFDVPTTESERLQAEWHDSDWILSVPAKLPEIEEYYDGNTSSNSRQRSGWSSGRSGRSGRSGGRSGGRSGRQSRQGSRSGSRQDGRRRSGNRNRSRSGGHKRSFD [DDX50]”, for which the “solubility in G1/S (log2)” value in data set [1] was -1.4. In addition, in data set [2] (cell cycle stage: mitosis), the melting temperature came to 50.4 °C. Besides, in data set [3], the “solubility change mitosis (log2)” value is 0.879. Further, the thermal stability score came out at 1.27 in data set [4] (setting [5]) and 2.08 in data set [4] (cell cycle stage: mitosis).

As for “MPGKLRSDAGLESDTAMKKGETLRKQTEEKEKKEKPKSDKTEEIAEEEETVFPKAKQVKKKAEPSEVDMNSPKSKKAKKKEEPSQNDISPKTKSLRKKKEPIEKKVVSSKTKKVTKNEEPSEEEIDAPKPKKMKKEKEMNGETREKSPKLKNGFPHPEPDCNPSEAASEESNSEIEQEIPVEQKEGAFSNFPISEETIKLLKGRGVTFLFPIQAKTFHHVYSGKDLIAQARTGTGKTFSFAIPLIEKLHGELQDRKRGRAPQVLVLAPTRELANQVSKDFSDITKKLSVACFYGGTPYGGQFERMRNGIDILVGTPGRIKDHIQNGKLDLTKLKHVVLDEVDQMLDMGFADQVEEILSVAYKKDSEDNPQTLLFSATCPHWVFNVAKKYMKSTYEQVDLIGKKTQKTAITVEHLAIKCHWTQRAAVIGDVIRVYSGHQGRTIIFCETKKEAQELSQNSAIKQDAQSLHGDIPQKQREITLKGFRNGSFGVLVATNVAARGLDIPEVDLVIQSSPPKDVESYIHRSGRTGRAGRTGVCICFYQHKEEYQLVQVEQKAGIKFKRIGVPSATEIIKASSKDAIRLLDSVPPTAISHFKQSAEKLIEEKGAVEALAAALAHISGATSVDQRSLINSNVGFVTMILQCSIEMPNISYAWKELKEQLGEEIDSKVKGMVFLKGKLGVCFDVPTASVTEIQEKWHDSRRWQLSVATEQPELEGPREGYGGFRGQREGSRGFRGQRDGNRRFRGQREGSRGPRGQRSGGGNKSNRSQNKGQKRSFSKAFGQ [DDX21]”, the “solubility in G1/S (log2)” value in data set [1] was -1.67. Also, the melting temperature in data set [2] (cell cycle stage: G1/S) is 49.3 °C; in data set [2] (cell cycle stage: mitosis) it was 50.8 °C. Further, the “solubility change mitosis (log2)” value in data set [3] amounted to 0.826. In addition, the thermal stability score in data set [4] (setting [5]) worked out at 5.09; in data set [4] (cell cycle stage: mitosis), 6.63.

With “MPGPRRPAGSRLRLLLLLLLPPLLLLLRGSHAGNLTVAVVLPLANTSYPWSWARVGPAVELALAQVKARPDLLPGWTVRTVLGSSENALGVCSDTAAPLAAVDLKWEHNPAVFLGPGCVYAAAPVGRFTAHWRVPLLTAGAPALGFGVKDEYALTTRAGPSYAKLGDFVAALHRRLGWERQALMLYAYRPGDEEHCFFLVEGLFMRVRDRLNITVDHLEFAEDDLSHYTRLLRTMPRKGRVIYICSSPDAFRTLMLLALEAGLCGEDYVFFHLDIFGQSLQGGQGPAPRRPWERGDGQDVSARQAFQAAKIITYKDPDNPEYLEFLKQLKHLAYEQFNFTMEDGLVNTIPASFHDGLLLYIQAVTETLAHGGTVTDGENITQRMWNRSFQGVTGYLKIDSSGDRETDFSLWDMDPENGAFRVVLNYNGTSQELVAVSGRKLNWPLGYPPPDIPKCGFDNEDPACNQDHLSTLEVLALVGSLSLLGILIVSFFIYRKMQLEKELASELWRVRWEDVEPSSLERHLRSAGSRLTLSGRGSNYGSLLTTEGQFQVFAKTAYYKGNLVAVKRVNRKRIELTRKVLFELKHMRDVQNEHLTRFVGACTDPPNICILTEYCPRGSLQDILENESITLDWMFRYSLTNDIVKGMLFLHNGAICSHGNLKSSNCVVDGRFVLKITDYGLESFRDLDPEQGHTVYAKKLWTAPELLRMASPPVRGSQAGDVYSFGIILQEIALRSGVFHVEGLDLSPKEIIERVTRGEQPPFRPSLALQSHLEELGLLMQRCWAEDPQERPPFQQIRLTLRKFNRENSSNILDNLLSRMEQYANNLEELVEERTQAYLEEKRKAEALLYQILPHSVAEQLKRGETVQAEAFDSVTIYFSDIVGFTALSAESTPMQVVTLLNDLYTCFDAVIDNFDVYKVETIGDAYMVVSGLPVRNGRLHACEVARMALALLDAVRSFRIRHRPQEQLRLRIGIHTGPVCAGVVGLKMPRYCLFGDTVNTASRMESNGEALKIHLSSETKAVLEEFGGFELELRGDVEMKGKGKVRTYWLLGERGSSTRG [NPR1]”, the “solubility in G1/S (log2)” value in data set [1] was determined as 0.0297. The melting temperature in data set [2] (cell cycle stage: G1/S) is 52.4 °C; in data set [2] (cell cycle stage: mitosis), 51.4 °C. For the same sequence, the “solubility change mitosis (log2)” value in data set [3] was -0.0544. The values for the thermal stability score in data set [4] (setting [5]) and in data set [4] (cell cycle stage: mitosis) were 0.231 and -0.0841, respectively.

As to “MPGRAPLRTVPGALGAWLLGGLWAWTLCGLCSLGAVGAPRPCQAPQQWEGRQVMYQQSSGRNSRALLSYDGLNQRVRVLDERKALIPCKRLFEYILLYKDGVMFQIDQATKQCSKMTLTQPWDPLDIPQNSTFEDQYSIGGPQEQITVQEWSDRKSARSYETWIGIYTVKDCYPVQETFTINYSVILSTRFFDIQLGIKDPSVFTPPSTCQMAQLEKMSEDCSW [EPDR1]”, the “solubility in G1/S (log2)” value in data set [1] worked out at 0.348. Also, the melting temperature in data set [2] (cell cycle stage: G1/S) amounted to 56.1 °C; in data set [2] (cell cycle stage: mitosis), 55 °C. Moreover, the “solubility change mitosis (log2)” value in data set [3] is -0.162. The results for the thermal stability score in data set [4] (setting [5]) and in data set [4] (cell cycle stage: mitosis) were -1.3 and -2.65, respectively.
